Entries after “also recorded” stand apart in the source; their conditions may differ. Where no end group is shown, it is not given here.
Legend:
[1] = Oscillatory rheology of peptide hydrogels (storage and loss moduli); format: physicochemical
Source text: (gel storage modulus of ˜600 Pa). Gel formation continued to mature after two hours with a doubling of the gel modulus to ~1200 Pa. An equilibrium storage modulus of ~1600 Pa was reached after several hours of gel formation. This equilibrium behavior is clearly shown by the linear, frequency independent moduli measurements in FIG. 6B. For comparison, the storage modulus of strawberry gelatin is ˜50 Pa (data not shown).
In FIG. 6D, a time sweep experiment identical to that performed during the original gel formation was run immediately after the application of 1000% strain at 6 Hz for 180 seconds. The initial modulus of the reforming gel was 650 Pa with 80% of the equilibrium modulus recovered after only 30 minutes making this a quick recovering and relatively strong hydrogel. For comparison, a 2 wt % gelatin hydrogel takes over 4 h to recover 80% of its equilibrium modulus after shear thinning.
Rheology: Dynamic time and frequency sweep experiments were performed in a strain controlled Rheometrics ARES rheometer with 25.0 mm diameter parallel plate geometry and 0.5 mm gap distance. Lyophilized peptide was dissolved in de-ionized water and buffer or cell growth media solution at 10° C. in order to suppress folding and gelation before the sample is loaded into the rheometer. After the sample was loaded, temperature was increased to either 20° C. or 37° C. Standard low viscosity mineral oil was used to insulate the sides of the plate in order to suppress evaporation. […] Strain sweep experiments were performed to determine the linear viscoelastic regime in which all rheological experiments were performed. Dynamic time sweep experiments were performed with a frequency and strain of 6 rad/s and 1%, respectively. Frequency sweep experiments were performed with a frequency and strain of 0.1-100 rad/s and 5%, respectively.

[2] = test system: fibroblasts (NIH 3T3, mouse); test: Fibroblast adhesion and proliferation on hydrogel by optical microscopy; format: cell-based
Procedure: These cells were used as a model system because of their importance in connective tissue development and their easily distinguished morphology when adhered to the hydrogel scaffold. Qualitative studies were performed in which cells were added to either polystyrene control wells or wells containing a uniform slab (3 mm thick) of MAX1-hydrogel. Cell adhesion was qualitatively monitored via direct observation of cell spreading after four hours from the time of initial cell seeding by optical microscopy (a quantitative cell attachment assay is described below, see also Akiyama, S. K. Functional analysis of cell adhesion: Quantitation of cell-matrix attachment, 2002; Vol. 69, pp 281-296). Non-adhered fibroblasts have rounded morphologies and adhered fibroblasts have spread morphologies Proliferation was measured both qualitatively by optical microscopy and quantitatively by a ^3H thymidine-based cell seeding assay as described below. Hydrogels were prepared in 48 well tissue culture plates by either one of the following protocols. Protocol 1: MAX1 was dissolved in water (resulting in an acidic solution, pH~5) and an equal volume of buffer (pH 9, 250 mM borate, 20 mM NaCl) was added at room temperature to induce folding/self-assembly resulting in a 2 wt % hydrogel. The resulting gel was bathed in DMEM containing 10% calf serum and […] gentamicin. This allowed media to permeate throughout the gel and adjust the pH to 7.3 The storage moduli (rigidity) of gels prepared by protocol 1 are about 1600 Pa. Protocol 2: MAX1 was dissolved in water and an equal volume of serum free DMEM containing […] gentamicin was added to induce folding/self-assembly affording 2 wt % hydrogels. Depending on the experiment, DMEM containing calf serum can then be added to introduce serum proteins. The storage moduli of gels prepared by protocol 2 are about 1200 Pa. […] Proliferation of the cells occurs until confluency is reached, usually around 72 hours if 10^4 cells are initially plated, FIG. 16B. Cells remain viable for at least a month as long as fresh media is provided (we stopped the assay after 1 month). Cells added to control wells containing no gel show similar behavior, FIGS. 16 C and D. In FIGS. 16A-D, cells are plated in the presence of DMEM containing 10% calf serum. Serum proteins may help mediate cellular adhesion to the hydrogel by first coating the scaffold. To determine if the hydrogel scaffold alone is conducive to cell adhesion, cells were plated onto 2 wt. % hydrogels in the absence of serum. […] The incorporation of cell binding epitopes in peptides used in hydrogel formation may be used to enhance cell adhesion in the absence of serum.

[3] = 2 wt %, pH 7.4, 20 mM NaCl, 20° C
[4] = 2 wt %, pH 9, 1000% strain at 6 Hz for 180 s (FIG. 6D legend)
[5] = 2 wt %, serum free DMEM cell growth media, 37° C

Sequence: VKVKVKVK V^DPPT KVKVKVKV-NH2 (not fully specified (C-terminus)) [MAX1]
- rate of self-assembly leading to a rheological response, compared to MAX4 ([1]; 1 wt % preparations, 40° C, pH 9.0, 125 mM Borate, 10 mM NaCl): faster
- G′ values (frequency sweep) ([1]; 2 wt %, cell growth media, 37° C): ~2500 Pa
- G′ recovered instantaneously after cessation of shear, of initial value ([1]; 2 wt %, cell growth media, 37° C, after 1000% strain at 6 rad/s): ~50%
- hydrogel rigidity (storage modulus) ([1]; 2 wt %, pH 7, NaCl final concentration 150 mM, data not shown): 3000 Pa
- G′ during lag time [1, 3]: 2-3 Pa
- lag time before G′ increases [1, 3]: 3000 s
- storage modulus (G′) ([1]; 2 wt %, pH 7.4, 20 mM NaCl, 20° C, after 2.5 hr gelation): ~100 Pa
- lag time before G′ increases ([1]; 2 wt %, pH 7.4, 150 mM NaCl, 20° C): ~1000 s
- time of gelation to a material of useful rigidity ([1]; 2 wt %, pH 7.4, 150 mM NaCl, 37° C): about 10 minutes
- G′ value (frequency sweep) ([1]; 2 wt %, pH 7.4, 150 mM NaCl, 37° C, after 2.5 hours gelation): around 2000 Pa
- lag time before G′ increases ([1]; 2 wt %, pH 7.4, 400 mM NaCl, 20° C): does not exist
- equilibrium storage modulus (G′) ([1]; 2 wt %, pH 7.4, 400 mM NaCl, 20° C, after 2.5 hr gelation): ~3000 Pa
- former rigidity regained immediately after large strain [1, 4]: ~75%
- time to regain prestrain rigidity [1, 4]: 10 to 20 min
- equilibrium modulus recovered after 30 minutes ([1]; 2 wt %, pH 9, after 1000% strain at 6 Hz for 180 seconds): 80%
- initial modulus of the reforming gel ([1]; 2 wt %, pH 9, immediately after 1000% strain at 6 Hz for 180 seconds): 650 Pa
- storage moduli (rigidity) of gels prepared by protocol 1 ([1]; 2 wt %, pH 9 borate buffer trigger, then bathed in DMEM with 10% calf serum): about 1600 Pa
- G′ at the end of 2 hours of gelation [1, 5]: 2300 Pa
- G″ at the end of 2 hours of gelation [1, 5]: 50 Pa
- G′ values ([1]; pH 7.4 without added NaCl, after 3 hours, no gelation): approximately 1 Pa
- crossover concentration separating liquid-like (G″>G′) and gel-like (G′>G″) response ([1]; pH 9): about 1 wt %
- time to confluency ([2]; 2 wt % gel, 10^4 cells initially plated, DMEM with 10% calf serum): around 72 hours
- fibroblast adhesion to gel surface in the presence of serum ([2]; 2 wt % gel, DMEM with 10% calf serum, after four hours): adhered; also recorded: efficiently attached
- fibroblast attachment and spreading in the absence of serum, compared to serum containing cultures ([2]; 2 wt. % hydrogels, after about four hours): to a lesser extent; also recorded: less efficiently
- cell proliferation after addition of serum at four hours ([2]; 2 wt. % hydrogels, plated without serum, 72 hours): near confluency
- time cells remain viable on gel ([2]; fresh media provided): ≥ 1 month

Reference: US8221773B2, “Hydrogels and uses thereof” (University of Delaware, priority 2004, dated 2012)
